Measured values published in article PMC10319729 (Scientific Reports, 2023).

Molecular target: T1, LGR4 (HA-LGR4) over-expressed on HEK293 cells (UniProt Q9BXB1 25-951)
T1 construct: Plasmid and cell line described in earlier work; also called HEK293-LGR4; full-length LGR4; source: HEK293 cells over-expressing the receptor (HEK293-LGR4), on cells
Assay: whole-cell binding, fluorescence plate reader; His-tagged ligand in 3x serial dilution on cells in 96-well plates, on ice 1 h, washed, fixed with 4.2% paraformaldehyde, Alexa488-labeled anti-His antibody; half-maximum binding (KD) from a three-parameter dose-response fit
Conditions: one partner purified

B1: R2FuTSP-His (RSPO2 furin domain with TSP domain, His-tagged) (domain or fragment, UniProt Q6UXX9 22-205, looked up)
chain: QGNRWRRSKRASYVSNPICKGCLSCSKDNGCSRCQQKLFFFLRREGMRQYGECLHSCPSGYYGHRAPDMNRCARCRIENCDSCFSKDFCTKCKVGFYLHRGRCFDECPDGFAPLEETMECVEGCEVGHWSEWGTCSRNNRTCGFKWGLETRTRQIVKKPVKDTILCPTIAESRRCKMTMRHCPG
notes: R-spondin 2 (RSPO2), furin domain with the thrombospondin-like (TSP) domain; source: bought: R&D Systems
With B1 the Kd was 2.2 ± 0.3 nM.
